Columns and labels:
Assay in all cases: Kinase Profiling Assay
Format in all cases: biochemical
Conditions in all cases: 100 μM
Txk (h) = target: T1, Txk (h) (Homo sapiens, UniProt P42681)
T1 sequence (P42681 1-527): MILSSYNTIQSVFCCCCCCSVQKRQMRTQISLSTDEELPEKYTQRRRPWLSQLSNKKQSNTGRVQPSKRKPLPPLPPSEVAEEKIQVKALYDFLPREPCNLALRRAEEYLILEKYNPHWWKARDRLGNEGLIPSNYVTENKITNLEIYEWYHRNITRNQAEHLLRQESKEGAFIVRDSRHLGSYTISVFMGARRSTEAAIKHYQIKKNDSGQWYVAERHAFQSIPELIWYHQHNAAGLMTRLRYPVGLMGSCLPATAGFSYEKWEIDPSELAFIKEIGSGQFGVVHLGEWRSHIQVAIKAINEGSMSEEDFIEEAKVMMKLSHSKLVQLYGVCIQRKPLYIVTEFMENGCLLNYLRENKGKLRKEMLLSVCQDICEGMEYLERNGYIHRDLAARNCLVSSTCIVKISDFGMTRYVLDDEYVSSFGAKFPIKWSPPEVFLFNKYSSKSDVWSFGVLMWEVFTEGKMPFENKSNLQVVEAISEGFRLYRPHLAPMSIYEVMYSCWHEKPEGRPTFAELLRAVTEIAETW
How it was run: (§1)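 Each kinase activity was measured in duplicate. Phosphorylation of a positively charged substrate with radiolabeled phosphate from ATP was captured on a negatively charged filter, counted by scintillation and expressed relative to a 100% activity control. MK2 inhibitory peptides were screened for specificity across 266 human kinases.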

MAPK2 (h) = MAPK2 (h) (Homo sapiens, UniProt P28482)
MAPK2 (h), sequence (P28482 whole entry): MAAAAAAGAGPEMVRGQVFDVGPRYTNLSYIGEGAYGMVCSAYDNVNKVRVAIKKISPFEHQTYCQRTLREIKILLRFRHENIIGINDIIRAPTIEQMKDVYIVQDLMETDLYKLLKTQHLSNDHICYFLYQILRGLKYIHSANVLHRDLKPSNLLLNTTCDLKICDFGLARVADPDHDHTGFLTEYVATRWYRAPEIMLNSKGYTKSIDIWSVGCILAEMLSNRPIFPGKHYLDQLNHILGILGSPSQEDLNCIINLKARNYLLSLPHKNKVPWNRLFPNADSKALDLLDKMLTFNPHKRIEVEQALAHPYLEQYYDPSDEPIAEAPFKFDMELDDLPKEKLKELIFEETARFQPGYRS
How it was run: as §1

CK2 (h) = target: T2, CK2 (h) (Homo sapiens, UniProt P68400)
T2 construct: purchased Millipore
T2 sequence (P68400 whole entry): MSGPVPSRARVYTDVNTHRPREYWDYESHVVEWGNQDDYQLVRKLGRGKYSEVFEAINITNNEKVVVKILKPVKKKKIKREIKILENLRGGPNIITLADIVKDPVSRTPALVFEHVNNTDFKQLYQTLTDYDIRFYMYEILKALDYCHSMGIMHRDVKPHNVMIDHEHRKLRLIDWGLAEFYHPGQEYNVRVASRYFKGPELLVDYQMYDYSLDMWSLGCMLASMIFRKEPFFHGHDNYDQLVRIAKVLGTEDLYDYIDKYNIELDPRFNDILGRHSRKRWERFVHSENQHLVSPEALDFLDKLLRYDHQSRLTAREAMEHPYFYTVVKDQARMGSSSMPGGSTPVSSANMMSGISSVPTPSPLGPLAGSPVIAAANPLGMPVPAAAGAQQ
T2 sequence (P67870 whole entry partner): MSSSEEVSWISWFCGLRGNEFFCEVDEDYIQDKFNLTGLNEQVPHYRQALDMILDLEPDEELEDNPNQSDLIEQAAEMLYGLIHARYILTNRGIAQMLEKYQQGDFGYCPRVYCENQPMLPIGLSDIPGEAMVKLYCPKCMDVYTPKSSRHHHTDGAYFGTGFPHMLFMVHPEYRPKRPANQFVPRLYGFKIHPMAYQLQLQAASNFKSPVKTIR
How it was run: as §1

NEK11 (h) = target: T3, NEK11 (h) (Homo sapiens, UniProt Q8NG66)
T3 construct: purchased Millipore
T3 sequence (Q8NG66 1-645): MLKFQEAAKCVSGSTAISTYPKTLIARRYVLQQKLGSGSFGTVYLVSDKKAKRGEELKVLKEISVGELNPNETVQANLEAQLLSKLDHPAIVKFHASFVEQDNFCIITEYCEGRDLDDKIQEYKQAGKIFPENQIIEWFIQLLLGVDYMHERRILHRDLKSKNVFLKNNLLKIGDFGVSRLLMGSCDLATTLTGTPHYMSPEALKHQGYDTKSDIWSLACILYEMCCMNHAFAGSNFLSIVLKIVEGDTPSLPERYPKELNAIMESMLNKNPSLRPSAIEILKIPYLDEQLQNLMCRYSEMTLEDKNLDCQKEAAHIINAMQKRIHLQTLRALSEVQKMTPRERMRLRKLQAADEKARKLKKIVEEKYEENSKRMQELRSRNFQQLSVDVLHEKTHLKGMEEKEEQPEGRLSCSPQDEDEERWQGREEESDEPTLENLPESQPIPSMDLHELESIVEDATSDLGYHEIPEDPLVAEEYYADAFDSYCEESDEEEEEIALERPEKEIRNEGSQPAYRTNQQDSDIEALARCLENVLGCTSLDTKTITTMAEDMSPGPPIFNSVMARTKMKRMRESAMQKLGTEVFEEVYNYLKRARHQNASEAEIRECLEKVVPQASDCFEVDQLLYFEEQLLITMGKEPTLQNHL
How it was run: as §1

MSSK1 (h) = target: T4, MSSK1 (h) (Homo sapiens, UniProt Q9UPE1)
T4 construct: purchased Millipore
T4 sequence (Q9UPE1 whole entry): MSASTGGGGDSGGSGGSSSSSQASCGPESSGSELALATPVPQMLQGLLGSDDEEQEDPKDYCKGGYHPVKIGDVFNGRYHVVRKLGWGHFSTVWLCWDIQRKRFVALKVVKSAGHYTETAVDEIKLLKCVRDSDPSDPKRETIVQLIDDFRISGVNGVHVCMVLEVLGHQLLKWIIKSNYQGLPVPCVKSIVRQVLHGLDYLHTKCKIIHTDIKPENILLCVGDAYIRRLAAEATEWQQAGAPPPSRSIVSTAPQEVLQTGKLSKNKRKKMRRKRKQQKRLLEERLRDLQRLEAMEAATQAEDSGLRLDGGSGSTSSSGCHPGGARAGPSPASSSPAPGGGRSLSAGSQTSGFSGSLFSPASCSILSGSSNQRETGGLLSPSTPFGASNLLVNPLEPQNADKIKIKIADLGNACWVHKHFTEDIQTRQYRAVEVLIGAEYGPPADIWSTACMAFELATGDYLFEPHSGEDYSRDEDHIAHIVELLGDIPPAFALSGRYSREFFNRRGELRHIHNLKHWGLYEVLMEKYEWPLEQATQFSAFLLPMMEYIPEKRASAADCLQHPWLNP
How it was run: as §1

LKB1 (h) = target: T5, LKB1 (h) (Homo sapiens, UniProt Q15831)
T5 sequence (Q15831 1-433): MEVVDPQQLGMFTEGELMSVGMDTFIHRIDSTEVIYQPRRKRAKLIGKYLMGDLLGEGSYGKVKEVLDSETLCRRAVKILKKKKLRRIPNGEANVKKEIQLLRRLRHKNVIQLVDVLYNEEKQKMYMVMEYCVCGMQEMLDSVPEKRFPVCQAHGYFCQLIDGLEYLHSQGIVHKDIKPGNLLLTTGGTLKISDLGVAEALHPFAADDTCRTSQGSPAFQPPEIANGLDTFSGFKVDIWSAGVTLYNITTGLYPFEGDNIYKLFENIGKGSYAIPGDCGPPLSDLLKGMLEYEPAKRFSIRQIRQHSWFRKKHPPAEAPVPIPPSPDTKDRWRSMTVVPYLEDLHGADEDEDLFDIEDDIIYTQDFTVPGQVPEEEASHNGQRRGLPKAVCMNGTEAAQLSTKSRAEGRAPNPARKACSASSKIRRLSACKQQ
T5 sequence (Q7RTN6 1-431 partner): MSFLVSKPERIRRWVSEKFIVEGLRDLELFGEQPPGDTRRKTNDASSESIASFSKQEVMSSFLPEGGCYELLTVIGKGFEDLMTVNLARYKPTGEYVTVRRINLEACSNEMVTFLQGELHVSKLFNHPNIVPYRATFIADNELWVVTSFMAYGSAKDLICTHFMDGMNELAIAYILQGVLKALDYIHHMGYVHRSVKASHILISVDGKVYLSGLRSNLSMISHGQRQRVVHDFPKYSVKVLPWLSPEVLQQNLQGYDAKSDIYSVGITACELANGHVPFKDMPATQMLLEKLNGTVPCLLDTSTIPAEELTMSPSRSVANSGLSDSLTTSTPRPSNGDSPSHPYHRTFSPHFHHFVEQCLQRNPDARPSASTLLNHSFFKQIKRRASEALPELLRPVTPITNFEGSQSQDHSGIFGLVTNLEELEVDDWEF
T5 sequence (Q9Y376 1-341 partner): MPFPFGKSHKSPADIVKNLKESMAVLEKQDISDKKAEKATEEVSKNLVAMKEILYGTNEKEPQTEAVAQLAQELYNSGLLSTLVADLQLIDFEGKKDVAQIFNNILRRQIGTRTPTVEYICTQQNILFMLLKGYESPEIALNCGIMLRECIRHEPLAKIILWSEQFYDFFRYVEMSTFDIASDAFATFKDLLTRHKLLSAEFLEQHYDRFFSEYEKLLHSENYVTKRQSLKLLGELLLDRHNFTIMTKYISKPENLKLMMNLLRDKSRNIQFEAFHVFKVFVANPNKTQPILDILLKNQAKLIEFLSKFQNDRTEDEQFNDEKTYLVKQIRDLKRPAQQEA
How it was run: as §1

JNK2α2 (h) = JNK2α2 (h) (Homo sapiens, UniProt P45984)
How it was run: as §1

EphA2 (h) = target: T6, EphA2 (h) (Homo sapiens, UniProt P29317)
T6 construct: purchased Millipore
How it was run: as §1

Sequence | % activity (Txk (h)) | % activity (MAPK2 (h)) | % activity (CK2 (h)) | % activity (NEK11 (h)) | % activity (MSSK1 (h)) | % activity (LKB1 (h)) | % activity (JNK2α2 (h)) | % activity (EphA2 (h))
FAKLAARLYRKALARQLGVAA [MMI-0300] | 48% | 98% | 90% | 53% | 77% | 101% | 98% | 31%
HRRIKAWLKKIKALARQLGVAA (Mammalian) [MMI-0500] | 10% | 60% | 93% | 2% | 22% | 51% | 81% | 
KAFAKLAARLYRKALARQLGVAA [MMI-0400] | 37% | 93% | 101% | 33% | 75% | 89% | 96% | 17%
YARAAARQARAKALNRQLGVA (Mammalian) [MMI-0200] | 98% |  | 83% | 95% | 100% | 99% |  | 95%

— US10500249B2, “Compositions and methods for preventing or treating diseases, conditions, or processes characterized by aberrant fibroblast proliferation and extracellular matrix deposition” (MOERAE MATRIX, INC., priority 2014, dated 2019)
